Data taken from PMC3128523.

Target: GST-tagged constitutively active Rab1A Q67L (Dictyostelium) (UniProt P34139)
Experiment: pull-down

Sequence of UniProt P34139 (P34139 whole entry Q67L): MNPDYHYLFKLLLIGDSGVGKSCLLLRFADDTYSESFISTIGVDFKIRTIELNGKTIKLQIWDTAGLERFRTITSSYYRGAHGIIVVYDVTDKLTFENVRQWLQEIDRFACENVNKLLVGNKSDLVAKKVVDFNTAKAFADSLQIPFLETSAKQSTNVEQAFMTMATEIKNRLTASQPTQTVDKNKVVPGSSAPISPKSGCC

fold of Roco2 pulled down against wild-type Rab1A: > 5 fold
Substance: T7-tagged Roco2 (wild type) (enzyme)
